The values below come from the DeepSol protein solubility set.

The data set in a line: soluble on expression in E. coli; label from the status in PepcDB or PDB records.
For the sequence “MGSDKIHHHHHHMSFNIGLSGIQAASSGLNVTGNNIANAGTVGFKQSRAEFADVYAASVLGSGSNPQGSGVLLSDVSQMFKQGNIDSTNSVLDLAINGNGFFVTSNNGAISYTRAGYFNTDKQDFIVDNNGYRLQGYAVGPNGQLQNGVVTDLKVERANQAPQATSSIQQSYNLNSTLKPPTVTPFDPSDAATYNSSSSLGIYDSQGNSHTMSQFFIKNEPDPNATPPIPENSWTMKVLIDGVNPLDPSNKTPMSFNVTFDASGQMTSVRAPDGSTSGPGFSIDATTNVIQFSPATGNPPTPGTGWIPAASDGKTPPTYAWNGATGAASGISFDMRKTTQYSTAFAQSNPIQDGYTTGQLAGLEIDDTGVIFARYTNGQSKVQGQVVLANFANIQGLTPIGKTSWVQSSESGEPAVGAPRSGTLGALQSGALEASNVDISNELVNLIVHQRNYQANAKTIQTEDAVTQTIINLR”, the “soluble on expression in E. coli” value is listed as “not soluble”.

Take “MPSCEINLIFNDSEEPVTLRDTGIIMLVPVILRSVQSEFPDFENQDNVKVTSPLSIPFNKKAGVFLFEYIQKYVPPNDDTIHELTVVENYKEAGQKTLDELKEIIELANFFECTDFMECLGFVIGKKLEDKSVEEIAAYMGVECNAPGHFFDEADGWVHPPADAFQNVQ”: the “soluble on expression in E. coli” value is “not soluble”. On to “MAHHHHHHMYVAIYNIGKKKNIGSIVRSCVAFRVSKIFVVSRKKNQVNFFGHMGTCEYITIEYFSSMKELKTHLRDNGILLYACEITSSAVPVTRRPFENKDTAFLFGNEGTGINDETLSYCDKVVYIPQYGNGTCSLNVSVSCAIILHHFAVWADYPEVGISGKKFVLNKCATKLERYLNPSDDLLRQISEKRAQRAATKLASPDWAAPHFADPSPDLFPG”, for which the “soluble on expression in E. coli” value is reported as “not soluble”. To “MIPPEIRRSVLLQKAIKLALAGTLLTFASFSATAADPSSDTETPQPPDILLGPLFNDVQNAKLFPDQKTFADAIPNSDPLMILADYRMQRNQSGFDLRHFVDVNFTLPKAGEKYVPPAGQSLREHIDGLWPVLTRSTKNVEKWDSLLPLPESYVVPGGRFREIYYWDSYFTMLGLAESGHWDKVADMVANFGYEIDAWGHIPNGNRTYYLSRSQPPFFAFMVELLAQHEGDDALKEYLPQLQKEYAYWMEGVETLQPGQQNQRVVKLEDGSVLNRYWDDRDTPRPESWVEDIATAKSNPNRPATEIYRDLRSAAASGWDFSSRWMDNPQQLSTIRTTTIVPVDLNALLYQLEKTLARASAAAGDRAKASQYDALANARQKAIEMHLWNNKEGWYADYDLQNNKIRDQLTAAALFPLYVNAAAKDRAVKVAAAAQAHLLQPGGLATTSVKSGQQWDAPNGWAPLQWVAAEGLQNYGQDDVAMEVTWRFLTNVQHTYDREKKLVEKYDVSSTGTGGGGGEYPLQDGFGWTNGVTLKMLDLICPQEKPCDSVPSTRPASLSATPTKTPSAATQLEHHHHHH” belongs “not soluble”; to “MGSSHHHHHHSSGRENLYFQGHMMSGHNKWANIKHRKMAQDAKKSKIFTKLIREIIVAAREGGGNIETNPRLRAAVERARAENMPKENIERAIKRGTGELEGVDYQEVIYEGYAPGGVAVYIRALTDNKNRTAQELRHLFNKYGGSLAESGSVSWIFERKGVIEISRDKVKDLEELMMIAIDAGAEDIKDAEDPIQIITAPENLSEVKSKLEEAGYEVEAKVTFIPKNTVKVTGKDAEKVLEFLNALEDMDDVQEVYSNFEMDDKEMEEILSRLEG”, “soluble”. As to “MGSDKIHHHHHHMQKSLEKCSAIDYLIVLGGRHVNETIYLADERKRLPSLVKHHRASPGRLIRECEIPPLFDVIISGEAEKLIAEIGELFSRCNQSPATFIAENLDMKTEGRWIADFPRIDNTLVSDGVPLKRDELPSVVGTFGVTASFDVFEGRMTSHIFSDTGPGCIYDCNFCSERRSIAGNIQDIQGAPRRLYNQLNETVSAVMQDHPSKGASAFVEDSIFLSGSPVAITQLCQLLEKAPLEVIFGGQFTIDQILRKKDLIQRLAKCGLRYIFIGLETLEPQEIGGMSKDVDGNKQTWKDRFLQALDFMAANHIDCGCALLFGLGEAHISRRNLLNGLIKLKQETGQPITLSANWAVRHPLRSSRESENENYLRRGTPEGELLEYFHRFGEASLEYPLPNVCAPQVGEVKEIILLLNEFEASDA”, the “soluble on expression in E. coli” value is “not soluble”. On to “NTQITIKMEPDTQALEEVVVIGYGAVKKRDLTGAVSSVKNEDITLTPATNPMQALQGRVAGLDITQASGQPGEGPKLQLRGTRSFTASGDPMFIIDGMPGDYSTLNPNDIESIEVLKDASSTAVYGAAGANGVIIITTKSGKAGK”, for which the “soluble on expression in E. coli” value is reported as “not soluble”. With “MSTVVDRLQRMTLNLTSPDGNLCATVDAERRARFHLRDETRFERYDAPTLSTQVKALLTTMNSGRELGIKRAYAADGREPAAVNGTHWDAAHRRFEAALATLELEGYSEDGLLLLQSGFDLSGYRVTIDRDDLPRTSPEQFLRELSGAYRDLLAHRRQRRAELLREHLGT”, the “soluble on expression in E. coli” value is reported as “not soluble”. With “MAIDFHLSASQKGTYQAARSLARNLLMPARQTYLQHPPNSPLRFQSTQPTYAAAVSAGILKGQISPAHGGTGGTLIESAILVEECYSVEPSAALTIFATGLGLTPINLAAGPQHAEFLAPFLSGEGSPLASLVFSEPGGVANALEKGAPGFQTTARLEGDEWVINGEKMWATNCAGWDFKGCDLACVVCRDATTPLEEGQDPENKVMIILVTRADLDRNGEGSFEVLRHVATPGHTSVSGPHVRYTNVRVPTKNVLCPAGQGAKVAFGAFDGSAVLVGAMGVGLMRAAFDAALKFAKEDNRGGAVPLLERQAFADLLSGVKIQTEAARALTWKAAHAMENGPGDYDARRELALAAKVFCSEAAVKACTDVINAVGISAYDLQRPFSDLLNTAVVLPIFDGGNVGIRRRHLQQLMLKPTYDAWSSTYGSFPGSHHHHHH”, the “soluble on expression in E. coli” value was “soluble”. On to “MTIKTLQYDDFMLYRERIRDLLVQIYDINFDVSHDYSINESNKKINLLDEYIKTNQAVLIGAVDGEKLVGFIWIYKHEYFGETRMHINQIIVDKEYKRKGIGKRLLEEAEKKAKELGIKVIDLFVSEKNAEAVNFYEKTGFVTERRYLKKILLEHHHHHH”, for which the “soluble on expression in E. coli” value is “not soluble”. As for “MGSDKIHHHHHHMLGKTANGLFWMSRYLERAENTARLIETGQRIALTRLGSAEDEWVSILQSAGSLGGFREAYDTHGQDAAVDWMLRGKDNPSSIMSSIASARQNARLVRAAITGEVWEAINATYMTASDLLARKVSARDLPDVLASIRQHTALMRGMVHGTMLRNDIYDFLRIGTFLERADNTARILDVKYYVLLPSVSAVGSSIDNVQWESILRSVSARGGFRMEYGADGGPQEIAHFLIFDKRMPRSLAFCVSKIKDNLRYLNAGQPTPSPSQELVTHLENTYLSHGIEEVFDYGLHEFIEKMLELLLELAHQIQLDYRFYE”, the “soluble on expression in E. coli” value is recorded as “not soluble”. To “MGSDKIHHHHHHMNNNQTRVLITAIGTMNCTTIISELKKAEEVFYVIGADINGKYSIANSNEVDEFFQFPSVLHDREGYVQYLLNFCKEHNVEVFFCVVDEEVEVVAKHKEDFNAIGITLCLANIDAIITCHNKNLFAEWSEKNIAKYCIKRYENITDVNNDNFPIFIKPVEGRASIGCRKIENMEELWKYASVWDNYIAQEYVTGEIVSVDIVRNRKTEQFEVVQKLELLRNSNGCGIAVEIVDIPEIRQLCCIIADIFNLNGVINAEFFITNKGLKIIEINPRLPAGIEYSCMAGLDVVLNALRIARGEACIFKDIKIGAHYAKRYETYEIK” belongs “not soluble”. For the sequence “MTSIALQLLLLLQPYTLTIRRSKMSTKLKQNLEGSFFVVSFSACSPGSKCEISCNITTFRFILYNIAPLFIARKQRQRIGQFAVVRRVRDRKTGEKYAAKFIKKRRYATSRRGVTRQNIEREVRVLQKIRGNSNVVELHAVYETASDVIIVLELVSGGELFDHVCAKECLDEVEAAAFIKQILLAVRHLHSLHIVHLDIKPENVMLKQRGDSQIKIIDFGLSREIEPGAVVKDMVGTPEFVAPEVVNYEALSPATDMWAVGVVTYILLSGGSPFLGDNRDETFSNITRVRYHFSDRYFKNTSKHAKDFIYRLFVRDVDQRATVEECLQHPWIRGPEGNAIDIRKASCITISHIQSFKTRQRWKRCVELVMVLLKASKSSRRIGDGRFDEEDMVASCTLICAEEGNLRALHKLSALHKLLPNATRKSLKSSFSEPNGATAMHCAAKYGHAEVFNYFHMKGGNICARDDNGDTPLHVACRFAQHTVAGYVANEKIDVDSINKTGETALHCAVESADTRVVRLLLQLRPRLDLPNAREETPLHVAAARGHVDCVQALLDANSPIDAVEQDGKTALIIALENGNVDIASILITNGCDINHADHHGDTALHIASKHGLLQAVQTLCHCAVTVDSVNANKKTALHLAAHYGHVDIIRVLLLARADVTLRGDDGLTAELVAVAAERLEAHSLLKMVKSQEIREEYISQLYPLDTSLRRIKLKLLGHSQSGKTRLVQTLHSSRGISSFLESVTRRISDHYSPSSSMKDDGIHSTNGSFVSESNNNSSFDLAAAAGSKYAPPHSQYTRGIDVQTVNINGCGEFSVWEFGGYEPMHTCYDHFVGNADCIHLILYRTSDPTEVQYKQILYWMNFLKGRVTPFEPIGHCGFSSRRSKVIIVGTHATSSLFPQMNQEGEYVSSDIEAMLNTVRLRFETHFDMDHRLILLDATNPSCIGMKTLKMELAKCRTNILAKLLKPLAILDTVVNHLNLVRKKHANFPVITWPDFIQLVRNEINPLTGDAHCRQIVQQLQLIGELVYLRNDLCDADYVVLNAEWFGTHILGQLLSAEFLSKASPNGSYHTSSLAKIFPEIPEQSDLMTILEVLQLCAPDARTGAHEFPVFIQTEAPDSIWRPYSLKEKERDTVYGGVRILPMRGMERSLHSTFPRIQVALRRSINDYQPAKDTQLHQWSECSKLVSQDREAVIRMVGDAVEIRARGPSESATSMFYFMEDLINLVEHAAAEVGPGISLERHFISPKHLKEHREHPALFPPESMMEMQQRESLSVKGTQDEEELFTDVVCFGSRDVARHLTLGIDVGVADLQMASRCELACLLDPPHAMGRDWSILAVKLQLTDQVPDVDSTGQSLSRTDQLLNEWAIHHPEQASVGNLCRILVELGRCDARDALYRTVPLYVFAPLEDQFLLETNDSGVVSSCHSSSEHNPINI”, the “soluble on expression in E. coli” value is on record as “not soluble”. Consider “MCSKQSANQQISYRQTAEATLDKGMDNQPEAPYWFPKQLLKWQLSKDKAAKYNTASVPLAKRIDKWQLPTVNKTQDPKMKVVALSIMNSSTSGNAPRGINTFDANVFSNWQYIDQLVYWGGSAGEGLIVPPTADVIDSAHKNGVPVLGTVFFPQVVSGGKLKWLNDFLKQDADGHFPMADKLVAVAKAYGFDGWFINQETDPEVKSFDSASTGKTATSSTSNGLSKKHAQLMQQLIKEYKQKAGSKLDLMWYDSMTKDGKMDWQNALTKENQSYLVDANMKPVADSMFLNFWWTKKRLASQELLKKSHERAEKLGISPYNLFAGIDVQADGTATPVRWNLFANKQHVPYTSLGLYAPDWTHASSDTVDEFQAKEGALWVNDQNDPSRSIPSTTSTHWPGVSTYAVEQSAITKQPFVTNFSLGNGYNYFIKLEHHHHHH”, for which the “soluble on expression in E. coli” value is given as “not soluble”.

For the sequence “MGHHHHHHSHNFHYGAGHPMKPHRLALTHSLVLHYGLYKKMIVFKPYQASQHDMCRFHSEDYIDFLQRVSPTNMQGFTKSLNAFNVGDDCPVFPGLFEFCSRYTGASLQGATQLNNKICDIAINWAGGLHHAKKFEASGFCYVNDIVIGILELLKYHPRVLYIDIDIHHGDGVQEAFYLTDRVMTVSFHKYGNYFFPGTGDMYEVGAESGRYYCLNVPLRDGIDDQSYKHLFQPVINQVVDFYQPTCIVLQCGADSLGCDRLGCFNLSIRGHGECVEYVKSFNIPLLVLGGGGYTVRNVARCWTYETSLLVEEAISEELPYSEYFEYFAPDFTLHPDVSTRIENQNSRQYLDQIRQTIFENLKMLNHAPSVQIHDVPADLLTYDRTD”, the “soluble on expression in E. coli” value is listed as “not soluble”.
